This is an account of results in patent US20240131162A1.

This assay addresses HER-2 (human) (UniProt P04626). Put plainly: SPR (BIAcore), HER-2 immobilised, antibody as analyte.

For ch4D5 (antibody), the koff stood at 6.3e-06 s⁻¹ and the kon worked out at 110000 M⁻¹ s⁻¹.
